In assay [1] the target is gHgL-I53-50 NP self-assembled nanoparticle (EB virus (M81 strain) for the gH and gL parts). As to the kind of experiment: BLI (Octet), AMMO1 on protein A sensor, antigen (row label gHgL-I53-50 NP) in solution 3.125-200 nM, 1:1 fit. In general terms: Biolayer interferometry detects binding as a change in optical thickness at a sensor tip.
Assay [2] addresses gHgL antigen protein of EB virus (EB virus (M81 strain)). As to the kind of experiment: BLI (Octet), AMMO1 on protein A sensor, antigen (row label gHgL) in solution 3.125-200 nM, 1:1 fit.
Assay [3] has as its target gHgL-I53-50A1 subunit (EB virus (M81 strain) for the gH and gL parts). As to the kind of experiment: BLI (Octet), AMMO1 on protein A sensor, antigen (row label gHgL-I53-50A1) in solution 3.125-200 nM, 1:1 fit.

This note sets out measurements from patent US20240309050A1.

pKd: −log10 of the molar value.

Regarding neutralizing antibody AMMO1, the pKd was 10.47 in assay [1], 9.36 in assay [2] and 9.62 in assay [3].

For orientation: pKd means the Kd on a negative log10 scale, so that one unit is a factor of ten. Read a high pKd as a low Kd.
